Assay results from publication doi:10.1101/2023.01.21.525003 (bioRxiv, 2023).

Target: Gluc-LHCGRv4 (Gaussia luciferase fused to the N-terminus of the luteinizing hormone/chorionic gonadotropin … (human, UniProt P22888 27-699))
Assay: FRET or BRET

Sequence of Gluc-LHCGRv4 (Gaussia luciferase fused to the N-terminus of the luteinizing hormone/chorionic gonadotropin … (P22888 27-699): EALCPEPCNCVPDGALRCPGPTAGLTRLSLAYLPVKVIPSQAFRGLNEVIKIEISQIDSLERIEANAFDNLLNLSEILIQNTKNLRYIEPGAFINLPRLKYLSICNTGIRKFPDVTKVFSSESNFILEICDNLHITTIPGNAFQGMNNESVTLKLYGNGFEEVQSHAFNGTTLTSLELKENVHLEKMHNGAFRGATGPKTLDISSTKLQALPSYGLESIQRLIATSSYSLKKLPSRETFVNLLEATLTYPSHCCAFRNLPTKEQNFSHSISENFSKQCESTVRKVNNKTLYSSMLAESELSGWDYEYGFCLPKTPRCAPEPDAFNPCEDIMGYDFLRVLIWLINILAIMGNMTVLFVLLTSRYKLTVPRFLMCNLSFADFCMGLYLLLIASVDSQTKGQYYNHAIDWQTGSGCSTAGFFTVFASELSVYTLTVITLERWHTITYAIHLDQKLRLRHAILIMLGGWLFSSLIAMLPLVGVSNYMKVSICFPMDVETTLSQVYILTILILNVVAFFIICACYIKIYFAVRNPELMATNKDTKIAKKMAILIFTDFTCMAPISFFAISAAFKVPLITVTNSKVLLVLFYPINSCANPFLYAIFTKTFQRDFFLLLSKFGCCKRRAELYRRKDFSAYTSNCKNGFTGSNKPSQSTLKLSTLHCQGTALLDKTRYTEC

- BRET ratio, fold over stimulation with unlabeled hormone: 4 fold
B1: LHB^WT-eGFP/CGA (luteinizing hormone: LH beta subunit fused to eGFP, co-expressed with the common glycoprotein alpha subunit) (complex)
chain 1: SREPLRPWCHPINAILAVEKEGCPVCITVNTTICAGYCPTMMRVLQAVLPPLPQVVCTYRDVRFESIRLPGCPRGVDPVVSFPVALSCRCGPCRRSTSDCGGPKDHPLTCDHPQLSGLLFL
chain 2: not shown
